{"source": "paper PMC3061051", "about": "(Nucleic Acids Research, 2010)", "binders": {"B1": {"name": "Full-length RECQ1 (RECQ1^FL) (natural protein, human, UniProt P46063 1-649, looked up)", "chain": "MASVSALTEELDSITSELHAVEIQIQELTERQQELIQKKKVLTKKIKQCLEDSDAGASNEYDSSPAAWNKEDFPWSGKVKDILQNVFKLEKFRPLQLETINVTMAGKEVFLVMPTGGGKSLCYQLPALCSDGFTLVICPLISLMEDQLMVLKQLGISATMLNASSSKEHVKWVHAEMVNKNSELKLIYVTPEKIAKSKMFMSRLEKAYEARRFTRIAVDEVHCCSQWGHDFRPDYKALGILKRQFPNASLIGLTATATNHVLTDAQKILCIEKCFTFTASFNRPNLYYEVRQKPSNTEDFIEDIVKLINGRYKGQSGIIYCFSQKDSEQVTVSLQNLGIHAGAYHANLEPEDKTTVHRKWSANEIQVVVATVAFGMGIDKPDVRFVIHHSMSKSMENYYQESGRAGRDDMKADCILYYGFGDIFRISSMVVMENVGQQKLYEMVSYCQNISKCRRVLMAQHFDEVWNSEACNKMCDNCCKDSAFERKNITEYCRDLIKILKQAEELNEKLTPLKLIDSWMGKGAAKLRVAGVVAPTLPREDLEKIIAHFLIQQYLKEDYSFTAYATISYLKIGPKANLLNNEAHAITMQVTKSTQNSFRAESSQTCHSEQGDKKMEEKNSGNFQKKAANMLQQSGSKNTGAKKRKIDDA"}, "B2": {"name": "Y564A-RECQ1^FL (natural protein, human, UniProt P46063 1-649, looked up)", "chain": "B1 chain with Y564A"}, "B3": {"name": "X12 Holliday junction (structured_DNA)", "DNA 1": "GACGCTGCCGAATTCTGGCTTGCTAGGACATCTTTGCCCACGTTGACCCG", "DNA 2": "CGGGTCAACGTGGGCAAAGATGTCCTAGCAATGTAATCGTCTATGACGTC", "DNA 3": "GACGTCATAGACGATTACATTGCTAGGACATGCTGTCTAGAGACTATCGC", "DNA 4": "GCGATAGTCTCTAGACAGCATGTCCTAGCAAGCCAGAATTCGGCAGCGTC"}, "B4": {"name": "Fork 20 duplex (dsDNA)", "DNA 1": "GAACGAACACATCGGGTACGTTTTTTTTTTTTTTTTTTTTTTTTTTTTTT", "DNA 2": "TTTTTTTTTTTTTTTTTTTTTTTTTTTTTTCGTACCCGATGTGTTCGTTC"}, "B5": {"name": "Δ8-Y564A-RECQ1^FL (natural protein, human, UniProt P46063 1-649, looked up)", "chain": "MASVSALTEELDSITSELHAVEIQIQELTERQQELIQKKKVLTKKIKQCLEDSDAGASNEYDSSPAAWNKEDFPWSGKVKDILQNVFKLEKFRPLQLETINVTMAGKEVFLVMPTGGGKSLCYQLPALCSDGFTLVICPLISLMEDQLMVLKQLGISATMLNASSSKEHVKWVHAEMVNKNSELKLIYVTPEKIAKSKMFMSRLEKAYEARRFTRIAVDEVHCCSQWGHDFRPDYKALGILKRQFPNASLIGLTATATNHVLTDAQKILCIEKCFTFTASFNRPNLYYEVRQKPSNTEDFIEDIVKLINGRYKGQSGIIYCFSQKDSEQVTVSLQNLGIHAGAYHANLEPEDKTTVHRKWSANEIQVVVATVAFGMGIDKPDVRFVIHHSMSKSMENYYQESGRAGRDDMKADCILYYGFGDIFRISSMVVMENVGQQKLYEMVSYCQNISKCRRVLMAQHFDEVWNSEACNKMCDNCCKDSAFERKNITEYCRDLIKILKQAEELNEKLTPLKLIDSWMGKGAAKLRVAGVVAPTLPREDLEKIIAHFLIQQYAAGPKANLLNNEAHAITMQVTKSTQNSFRAESSQTCHSEQGDKKMEEKNSGNFQKKAANMLQQSGSKNTGAKKRKIDDA"}, "B6": {"name": "RECQ1^49-616 (truncated catalytic core of human RECQ1 helicase) (domain or fragment, UniProt P46063 49-616, looked up)", "chain": "CLEDSDAGASNEYDSSPAAWNKEDFPWSGKVKDILQNVFKLEKFRPLQLETINVTMAGKEVFLVMPTGGGKSLCYQLPALCSDGFTLVICPLISLMEDQLMVLKQLGISATMLNASSSKEHVKWVHAEMVNKNSELKLIYVTPEKIAKSKMFMSRLEKAYEARRFTRIAVDEVHCCSQWGHDFRPDYKALGILKRQFPNASLIGLTATATNHVLTDAQKILCIEKCFTFTASFNRPNLYYEVRQKPSNTEDFIEDIVKLINGRYKGQSGIIYCFSQKDSEQVTVSLQNLGIHAGAYHANLEPEDKTTVHRKWSANEIQVVVATVAFGMGIDKPDVRFVIHHSMSKSMENYYQESGRAGRDDMKADCILYYGFGDIFRISSMVVMENVGQQKLYEMVSYCQNISKCRRVLMAQHFDEVWNSEACNKMCDNCCKDSAFERKNITEYCRDLIKILKQAEELNEKLTPLKLIDSWMGKGAAKLRVAGVVAPTLPREDLEKIIAHFLIQQYLKEDYSFTAYATISYLKIGPKANLLNNEAHAITMQVTKSTQNSFRAESSQTCHSEQGDKKME"}, "B7": {"name": "Y564A-RECQ1^T1 (domain or fragment, human, UniProt P46063 49-616, looked up)", "chain": "B6 chain with Y516A"}, "B8": {"name": "W227A-F231A-RECQ1^T1 (domain or fragment, human, UniProt P46063 49-616, looked up)", "chain": "B6 chain with W179A, F183A"}}, "key": {"AUC [1]": {"target": "the molecule itself", "test": "AUC"}, "[2]": {"target": "T1, Δ(F561-T562-T566)-RECQ1T1 (human, UniProt P46063 49-616, del561-562;del566-566)", "T1 sequence": "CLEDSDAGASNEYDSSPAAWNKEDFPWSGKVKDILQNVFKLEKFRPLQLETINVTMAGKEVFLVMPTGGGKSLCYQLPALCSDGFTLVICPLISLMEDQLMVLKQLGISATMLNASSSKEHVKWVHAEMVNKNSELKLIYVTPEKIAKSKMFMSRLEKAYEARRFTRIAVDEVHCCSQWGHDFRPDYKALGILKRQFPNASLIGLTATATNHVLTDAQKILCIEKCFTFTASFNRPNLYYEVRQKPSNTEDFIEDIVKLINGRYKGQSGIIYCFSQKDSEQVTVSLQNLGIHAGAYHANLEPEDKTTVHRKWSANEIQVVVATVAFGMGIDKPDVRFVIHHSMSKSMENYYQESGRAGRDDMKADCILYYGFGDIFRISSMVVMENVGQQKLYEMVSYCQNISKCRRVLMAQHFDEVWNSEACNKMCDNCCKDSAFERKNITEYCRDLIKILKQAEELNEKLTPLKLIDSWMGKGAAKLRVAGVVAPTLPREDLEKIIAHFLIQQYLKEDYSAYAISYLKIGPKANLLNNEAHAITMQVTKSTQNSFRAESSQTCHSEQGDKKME", "test": "EMSA"}, "W227A-F231A-RECQ1T1": {"target": "W227A-F231A-RECQ1T1 (human, UniProt P46063 49-616, W227A;F231A)", "test": "EMSA"}, "RECQ1T1 (RECQ1 49-616)": {"target": "RECQ1T1 (RECQ1 49-616) (human, UniProt P46063 49-616)", "test": "EMSA"}, "[3]": {"target": "T2, Y559A-S560A-F561A-RECQ1T1 (human, UniProt P46063 49-616, Y559A;S560A;F561A)", "T2 sequence": "B6 chain with Y511A, S512A, F513A", "test": "EMSA"}, "Y564A-RECQ1T1": {"target": "T3, Y564A-RECQ1T1 (human, UniProt P46063 49-616, Y564A)", "T3 sequence": "B6 chain with Y516A", "test": "EMSA"}, "AUC [4]": {"target": "the molecule itself", "test": "AUC", "remark": "listed apart in the source"}, "SEC": {"target": "the molecule itself", "test": "SEC"}}, "note": "Positions count from the first letter of the chain named. In names and notes the source's numbering stands. Several values for one entry are separate records, joined by “and”; a condition that tells them apart may be missing. Equal entries are not always repeated.", "data": [{"binder": "B1", "values": [{"measurement": "stoichiometry N", "setting": "AUC [1]", "value": "4 and 2"}]}, {"binder": "B2", "values": [{"measurement": "stoichiometry N", "setting": "AUC [1]", "value": "2 and 4"}]}, {"binder": "B3", "values": [{"measurement": "binding result", "setting": "[2]", "value": "no binding"}, {"measurement": "binding result", "setting": "W227A-F231A-RECQ1T1", "value": "no binding"}, {"measurement": "binding result", "setting": "RECQ1T1 (RECQ1 49-616)", "value": "no binding"}, {"measurement": "binding result", "setting": "[3]", "value": "no binding"}, {"measurement": "binding result", "setting": "Y564A-RECQ1T1", "value": "no binding"}]}, {"binder": "B4", "values": [{"measurement": "Kd", "setting": "W227A-F231A-RECQ1T1", "value": "10 ± 2", "unit": "nM"}, {"measurement": "Kd", "setting": "RECQ1T1 (RECQ1 49-616)", "value": "8 ± 2", "unit": "nM"}]}, {"binder": "B5", "values": [{"measurement": "stoichiometry N", "setting": "AUC [1]", "value": 2}]}, {"binder": "B6", "values": [{"measurement": "stoichiometry N", "setting": "AUC [4]", "value": 2}]}, {"binder": "B7", "values": [{"measurement": "stoichiometry N", "setting": "SEC", "value": 2}]}, {"binder": "B8", "values": [{"measurement": "stoichiometry N", "setting": "SEC", "value": 2}]}]}
